Measured values from US20240269315A1, “DRUG CONJUGATE AND USE THEREOF” (priority 2021, published 2024).

Target: T1, Trop2 (UniProt P09758 27-323, limits assumed)
T1 sequence (looked up): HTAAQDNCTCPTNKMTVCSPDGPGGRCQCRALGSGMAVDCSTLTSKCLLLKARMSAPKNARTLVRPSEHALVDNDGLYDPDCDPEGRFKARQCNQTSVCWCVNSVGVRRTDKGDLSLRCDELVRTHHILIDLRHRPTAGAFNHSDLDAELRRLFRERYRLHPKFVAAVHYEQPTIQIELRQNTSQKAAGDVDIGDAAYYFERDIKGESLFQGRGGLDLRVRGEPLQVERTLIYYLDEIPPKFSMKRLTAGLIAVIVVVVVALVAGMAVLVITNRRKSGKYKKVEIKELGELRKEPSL
Experiment: cell-based or functional assay

B1: ADC4 (antibody, human IgG1, kappa, V domains shown)
VH: QVQLQQSGSELKKPGASVKVSCKASGYTFTNYGMNWVKQAPGQGLKWMGWINTYTGEPTYTDDFKGRFAFSLDTSVSTAYLQISSLKADDTAVYFCARGGFGSSYWYFDVWGQGTLVTVSS
VL: DIQLTQSPSSLSASVGDRVSITCKASQDVSIAVAWYQQKPGKAPKLLIYSASYRYTGVPDRFSGSGSGTDFTLTISSLQPEDFAVYYCQQHYITPLTFGAGTKVEIKR
modifications: CB07-Exatecan on cysteine thiols after TCEP reduction; positions not given; DAR (p) 4.2 per antibody
  EC50 (ng/mL), growth inhibition of Trop2 positive MDA-MB-453 cells (CCK-8, 120 h): 640 ng/mL
  EC50 (ng/mL), growth inhibition of Trop2 positive MDA-MB-468 cells (CCK-8, 120 h): 158 ng/mL
  EC50 (ng/mL), growth inhibition of Trop2 positive MX-1 cells (CCK-8, 120 h): 233 ng/mL
